The text below walks through data of the supplement of paper PMC10567573.

B1: SLC35F2 (parent)
chain: QYLAERYKVNTPMLQSFINYCLLF
B2: FAM46C (parent)
chain: FDHLQNRLIATKNPEEIRGGGLLK
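Further: lentivirally expressed fusions sorted by FACS into six bins by GFP to DsRed ratio, PSI derived from sequencing read proportions per bin multiplied by bin number.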

One data set covers variants of B1. The experiment in a line: protein stability index of a GFP-peptide fusion (GPS, HEK-293T) (PSI 1-6); higher = more stable. The settings on record: c terminus: a fixed tail appended.
For the variant QYLAERYKVNTPMLQSIINYCLLF [F17I], the protein stability index is 3.

Take QYLAERYKVNTPMLQSEINYCLLF [F17E]: the protein stability index is 2.3.

Regarding QYLAERYKVNTPMLQSCINYCLLF [F17C], the protein stability index came out at 3.45.

QYLAERYKVNTPMLQSAINYCLLF [F17A]: the protein stability index is 1.76.

As for QYLAERYKVNTPMLQSGINYCLLF [F17G], the protein stability index came to 2.45.

With QYLAERYKVNTPMLQSQINYCLLF [F17Q], the protein stability index turned out to be 2.34.

In the case of QYLAERYKVNTPMLQSPINYCLLF [F17P], the protein stability index came to 1.8.

As to QYLAERYKWNTPMLQSFINYCLLF [V9W], the protein stability index came to 1.98.

For the variant QYLAERYKYNTPMLQSFINYCLLF [V9Y], the protein stability index was 2.06.

Regarding QYLAERYKPNTPMLQSFINYCLLF [V9P], the protein stability index was found to be 2.24.

Take QYLAERYKFNTPMLQSFINYCLLF [V9F]: the protein stability index amounted to 3.49.

Regarding QYLAERYKNNTPMLQSFINYCLLF [V9N], the protein stability index was found to be 2.23.

For the variant QYLHERYKVNTPMLQSFINYCLLF [A4H], the protein stability index amounted to 1.99.

As to QYLMERYKVNTPMLQSFINYCLLF [A4M], the protein stability index was found to be 3.1.

For QYLIERYKVNTPMLQSFINYCLLF [A4I], the protein stability index came out at 2.65.

Take QYLFERYKVNTPMLQSFINYCLLF [A4F]: the protein stability index was determined as 1.83.

Take QYLAERYYVNTPMLQSFINYCLLF [K8Y]: the protein stability index was found to be 3.27.

Regarding QYLAERYQVNTPMLQSFINYCLLF [K8Q], the protein stability index was 2.13.

With QYLAERYPVNTPMLQSFINYCLLF [K8P], the protein stability index amounted to 2.35.

Take QYLAERYRVNTPMLQSFINYCLLF [K8R]: the protein stability index came out at 1.63.

QYLAERYMVNTPMLQSFINYCLLF [K8M]: the protein stability index amounted to 2.75.

QYLAERYDVNTPMLQSFINYCLLF [K8D]: the protein stability index stood at 2.44.

Take QYLAERYFVNTPMLQSFINYCLLF [K8F]: the protein stability index is 3.46.

Consider QYLAERYCVNTPMLQSFINYCLLF [K8C], for which the protein stability index stood at 3.39.

For the variant QYLAERYKVNWPMLQSFINYCLLF [T11W], the protein stability index was 2.12.

As for QYLAERYKVNRPMLQSFINYCLLF [T11R], the protein stability index came out at 2.57.

On to QYLAERYKVNMPMLQSFINYCLLF [T11M], for which the protein stability index was 2.69.

QYLAERYKVNEPMLQSFINYCLLF [T11E]: the protein stability index was 2.27.

As for QYLAERYKVNDPMLQSFINYCLLF [T11D], the protein stability index was found to be 2.63.

On to QYLAERYKVNTPMLQSFINYCILF [L22I], for which the protein stability index amounted to 3.04.

For QYLAERYKVNTPMLQSFINYCALF [L22A], the protein stability index was determined as 1.57.

Consider QYLAERYKVNTPMLQSFINYCTLF [L22T], for which the protein stability index came out at 2.29.

QYLAERYKVNTPMLQSFINYCHLF [L22H]: the protein stability index was 3.33.

Consider QYLAERYKVNTPMLQSFINYCSLF [L22S], for which the protein stability index came to 2.21.

In the case of QYLAERYKVNTPMDQSFINYCLLF [L14D], the protein stability index was 2.82.

In the case of QYLAERYKVNTPMLHSFINYCLLF [Q15H], the protein stability index was 2.23.

As to QYLAERYKVNTPMLPSFINYCLLF [Q15P], the protein stability index amounted to 3.78.

Regarding QYLAERYKVNTPMLFSFINYCLLF [Q15F], the protein stability index was 3.17.

In the case of QYLAERYKVNTPMLDSFINYCLLF [Q15D], the protein stability index was determined as 3.24.

As to QYLAERYKVNTPMLCSFINYCLLF [Q15C], the protein stability index is 2.95.

Regarding QYLAERYKVNTPMLWSFINYCLLF [Q15W], the protein stability index was found to be 2.83.

With QYLAERYKVNTPMLTSFINYCLLF [Q15T], the protein stability index is 3.41.

For QYLAERYKVNTPMLQSFYNYCLLF [I18Y], the protein stability index was 2.15.

Regarding QYLAERYKVNTPMLQSFPNYCLLF [I18P], the protein stability index was 3.3.

On to QYLAERYKVNTPMLQSFNNYCLLF [I18N], for which the protein stability index worked out at 2.1.

Turning to QYLAERYKVNTPMLQSFDNYCLLF [I18D], the protein stability index was 3.29.

QYLAERYKVNTPMLQSFENYCLLF [I18E]: the protein stability index was determined as 2.75.

With QYLAERYKVNTPMLQSFRNYCLLF [I18R], the protein stability index is 3.24.

The variants in the next data set derive from B2. The description is as above. The settings on record: c terminus: a fixed tail appended.
With FDHLTNRLIATKNPEEIRGGGLLK [Q5T], the protein stability index was found to be 3.99.

On to FDHLFNRLIATKNPEEIRGGGLLK [Q5F], for which the protein stability index was 3.27.

As to FDHAQNRLIATKNPEEIRGGGLLK [L4A], the protein stability index came to 3.78.

As to FDHDQNRLIATKNPEEIRGGGLLK [L4D], the protein stability index turned out to be 4.02.

For the variant FDHIQNRLIATKNPEEIRGGGLLK [L4I], the protein stability index came to 3.24.

FDHLQNRLIATKNPEEHRGGGLLK [I17H]: the protein stability index worked out at 4.28.

Regarding FDHLQNRLIATKNPEEPRGGGLLK [I17P], the protein stability index turned out to be 3.55.

As to FDHLQNRLIATKNPEEIRLGGLLK [G19L], the protein stability index stood at 2.57.

Consider FDHLQNRLIATKNAEEIRGGGLLK [P14A], for which the protein stability index was found to be 3.69.

In the case of FDHLQNRLIATKNIEEIRGGGLLK [P14I], the protein stability index stood at 2.39.

For the variant FDHLQNRLIATKNMEEIRGGGLLK [P14M], the protein stability index turned out to be 3.66.

As to FDHLQNRLIATKNPEEIRGTGLLK [G20T], the protein stability index was 3.51.

For the variant FDHLQNRLIATKNPEEIRGGNLLK [G21N], the protein stability index is 4.51.

As to FDHLQNRLIATKNPEEIRGGQLLK [G21Q], the protein stability index turned out to be 3.41.

As to FDHLQNRLIATKNPEEIRGGWLLK [G21W], the protein stability index is 2.28.

As to FDHLQNRLIATKNPEEIRGGFLLK [G21F], the protein stability index is 2.82.

Turning to FDHLQNRLIATKNPEEIRGGYLLK [G21Y], the protein stability index was 3.21.

Consider FDHLQNRLIATKNPCEIRGGGLLK [E15C], for which the protein stability index turned out to be 2.9.

As for FDHLQNRLIATKNPYEIRGGGLLK [E15Y], the protein stability index was 1.97.

On to FDHLQNRLIATHNPEEIRGGGLLK [K12H], for which the protein stability index was determined as 3.1.

For the variant FDHLQNRLIATFNPEEIRGGGLLK [K12F], the protein stability index is 2.59.

With FDHLQNRLIATQNPEEIRGGGLLK [K12Q], the protein stability index is 3.61.

Consider FDHLQNRLIATKNPEEIYGGGLLK [R18Y], for which the protein stability index came to 3.58.

For FDHLQNRLIATKNPEEIWGGGLLK [R18W], the protein stability index came to 2.58.

For the variant FRHLQNRLIATKNPEEIRGGGLLK [D2R], the protein stability index worked out at 3.

Regarding FMHLQNRLIATKNPEEIRGGGLLK [D2M], the protein stability index was 2.17.

Consider FDHLQNRLIATKNPEEIRGGGLQK [L23Q], for which the protein stability index was determined as 5.13.

As to FDHLQNRLIATKNPEEIRGGGLWK [L23W], the protein stability index was 3.2.

FDHLQNRLIATKNPEEIRGGGLLM [K24M]: the protein stability index came to 3.11.

In the case of FDHLQNRLIITKNPEEIRGGGLLK [A10I], the protein stability index was found to be 2.71.

As to FDHLQGRLIATKNPEEIRGGGLLK [N6G], the protein stability index came to 3.03.

On to FDHLQNRLIAYKNPEEIRGGGLLK [T11Y], for which the protein stability index was determined as 3.31.

FDHLQNRLIAFKNPEEIRGGGLLK [T11F]: the protein stability index was 3.73.

Take FDHLQNRLIACKNPEEIRGGGLLK [T11C]: the protein stability index was 3.41.

Turning to FDHLQNRMIATKNPEEIRGGGLLK [L8M], the protein stability index was 3.99.

For the variant FDHLQNRGIATKNPEEIRGGGLLK [L8G], the protein stability index was 4.39.

Consider FDHLQNRLIATKNPEIIRGGGLLK [E16I], for which the protein stability index worked out at 3.9.

On to FDHLQNRLIATKNPECIRGGGLLK [E16C], for which the protein stability index was found to be 2.85.

For the variant FDHLQNRLIATKNPEAIRGGGLLK [E16A], the protein stability index was 3.43.

For HDHLQNRLIATKNPEEIRGGGLLK [F1H], the protein stability index was found to be 4.47.

Regarding CDHLQNRLIATKNPEEIRGGGLLK [F1C], the protein stability index was determined as 2.3.

Turning to FDHLQNRLIATKNPEEIRGGGALK [L22A], the protein stability index was 4.86.

Take FDHLQNRLIATKNPEEIRGGGRLK [L22R]: the protein stability index was 3.98.

Regarding FDHLQNRLIATKCPEEIRGGGLLK [N13C], the protein stability index amounted to 3.15.

In the case of FDALQNRLIATKNPEEIRGGGLLK [H3A], the protein stability index was determined as 3.72.

With FDPLQNRLIATKNPEEIRGGGLLK [H3P], the protein stability index is 4.
